This is an account of results in patent US20220017615A1 (SHANGHAI PHARMAEXPLORER, published 2022).

Changes are numbered by the printed parent chain.

A word on the Kd: it is the concentration at which binding is half-saturated. The term koff denotes a measure of how fast the partners let go of each other. Usually kon stands for the second-order rate constant of association.

This assay has as its target T1, His-tagged CD47 recombinant protein, CD47-His (human, UniProt Q08722 19-141, limits assumed).
T1 construct: it is not restated for CD47-His; also called human CD47-His protein; antigen CD47-His; not shown: His tag
Description: BLI (Octet Red 96), antibody on AHC sensor, CD47-His 100 nM. For orientation: In BLI a coated tip is dipped into the sample, and binding shifts an interference pattern.

B1: c51E2F11 (antibody, V domains shown)
VH: EVQLQQSGAELVKPGASVKLSCTASGFNIKDHYIHWMNQRTEQGLEWIGRIDPDDGETRYAPKFRGKATLTADTSSNTAYLQFSSLTSEDTAVYHCTRATTITRDWYFDVWGTGTTVTVSS
VL: DIVMTQSQKFMSTSVGDRVSITCKASQNVRTSVAWYQQKPGQSPKALIYLASNRHTGIPDRFTGSGSGTDFTLTIRNVQSEDLADYFCLQHWDYPLTFGAGTKLELK
For the molecule B1, the Kd is 2.41 nM, the koff is 0.00103 s⁻¹ and the kon was 428000 M⁻¹ s⁻¹.

B2: c4D10B11 (antibody, V domains shown)
VH: QVQLQQSGPELVKPGASVKISCKASGYSFTSYYIHWVKQRPGQGLEWIGWIYPGSGNTKYNEKFKGKATLTADTSSSTADMQLSSLTSEDSAVYYCARRGDWYFDVWGTGTTVTVSS
VL: DIVMSQSPSSLVVSVGEKVTMNCKSSQSLLFSGNQKSSLAWYQQKPGQSPKLLIYWASTRESGVPDRFTGSGSGTDFTLIISTVKAEDLAVYSCQQYYSYPLTFGAGTKLELK
Turning to B2, the Kd stood at 1.06 nM, the koff was 0.000284 s⁻¹ and the kon turned out to be 268000 M⁻¹ s⁻¹.

B3: c25E3B5 (antibody, V domains shown)
VH: QVQLQQPGTALVRPGSSVKLSCKASGYTFTSYWMHWVRQRPIKGLEWIGNIDPSDSETHYNQRFKDKVTLTVDKSSNTAYMQLSSLTSEDSAVYYCARWKYHGIGAMDYWGQGTSVTVSS
VL: DVQITQSPSYLAASPGETVTISCRTNRNISKFLAWYQEKPGKTNKLLIYSGSTLHSGIPSRFSGSGSGTDFTLTISRLEPEDFAMYYCQQHNEYPWSFGGGTKLEIK
B3: the Kd was determined as 3.7 nM, the koff came out at 0.000867 s⁻¹ and the kon was found to be 234000 M⁻¹ s⁻¹.

B4: c20H4G5 (antibody, V domains shown)
VH: QVQLQQPGAELVRPGSSVRLSCVTSGYTFTSHWMHWVKQGPIKGLEWIGNIDPSDSETHYNQKFKDKATLTVDKSSSTAYMQLSRLTSDDSAVYYCARWRHLGIGAMDYWGQGTSVIVSS
VL: B3 VL with V19I, S22N, T25A, N26S, R27K, E38A, T43S, K45N, H55Q, S97T
Take B4: the Kd came to 0.695 nM, the koff came to 0.000202 s⁻¹ and the kon worked out at 290000 M⁻¹ s⁻¹.

B5: c132D1E5 (antibody, V domains shown)
VH: QVQLQQPGAELVRPGSSVKLSCKASGYTFTNNWMHWVKQRPLQGLEWIGNIDPSDSETHYNQKFKDKATLTVDKSSTTAYIQLSSLTSEDSAVYYCARWRGGGRGAMDYWGQGTSVTVSS
VL: B3 VL with V19I, S22N, N26S, R27K, H55Q, R77N, S97T, G100R
In the case of B5, the Kd amounted to 0.982 nM, the koff is 0.000362 s⁻¹ and the kon was found to be 369000 M⁻¹ s⁻¹.

B6: c54G8G6 (antibody, V domains shown)
VH: QVQLQQPGADLVKPGASVKMSCKASGYTFTSYWIIWVKQRPGQGLEWIGDINPGRGSPNYNEKFKRKATLTVDTSSSTAYMQLSSLTSEDSAVYYCVRGGLRRFDHWGQGTLVTVSA
VL: ENVLTQSPAIMSASPGEKVTMTCRASSSVSSSYLHWYQQKSGASPKLWIYSTSTLASGVPARFSGSGSGTSYSLTISSVEAEDAATYYCQQYSGYPYTFGGGTKLEIK
On to B6, for which the Kd was 1.39 nM, the koff worked out at 0.000478 s⁻¹ and the kon was 343000 M⁻¹ s⁻¹.
